What all share (settings): one partner purified
Assay [1] has as its target T1, African green monkey uPAR on COS-1 cells (Chlorocebus aethiops (COS-1 cells), UniProt Q9GK79).
T1 construct: also called AGM uPAR; source: endogenous, on COS-1 cells
Kind of assay: flow cytometry on cells; cells incubated with ATN-658 (10 µg/mL) 1 h at 4°C in FACS buffer, Alexa Fluor 488 secondary antibody. In general terms: In flow cytometry, cells or beads pass a laser one at a time.

The target of assay [2] is T2, chimpanzee uPAR in tissues (chimpanzee (endogenous in tissues), UniProt Q9GK80).
T2 construct: source: endogenous, chimpanzee tissues
Kind of assay: immunostaining of cells or tissue; immunohistochemistry of chimpanzee tissues with ATN-658; no figure or methods given.

Assay [3] has as its target T3, human uPAR on the surface of cells (PC-3, HeLa) (Homo sapiens, UniProt Q03405).
T3 construct: source: endogenous, on PC-3 and HeLa cells
In words: radioligand binding; iodinated ATN-658 on the surface of HeLa cells.

Assay [4] addresses T4, mouse uPAR on B16 melanoma cells (Mus musculus (B16 melanoma), UniProt P35456).
T4 construct: source: endogenous, on B16 cells
In words: whole cell saturation binding assay; adherent cells on gelatin coated 12-well plates, varying concentrations of biotin-labeled ATN-658 in HBSS/0.1% BSA, 1 h at room temperature, HRP-streptavidin and OPD.

In assay [5] the target is T1, African green monkey uPAR on COS-1 cells. The description is as above.
Assay [6] has as its target T5, African green monkey (AGM) suPAR (Chlorocebus aethiops (COS-1 cells), UniProt Q9GK79).
T5 construct: soluble uPAR (suPAR) of African green monkey (Cercopithecus aethiops), cloned from COS-1 cells by PCR; numbers count on: the mature protein; Parent of the nine point mutants; also called monkey suPAR; source: Drosophila S2 cells, expressed as described for human suPAR
Kind of assay: ELISA; capture ELISA: suPAR clones from culture supernatant captured by anti-V5 antibody on the plate, biotin-ATN-658, streptavidin-HRP, OPD; saturation binding. (In general: ELISA stands for enzyme-linked immunosorbent assay.)

As a reminder, the Kd is a measure of binding affinity in units of concentration.

T1 sequence (Q9GK79 whole entry, looked up): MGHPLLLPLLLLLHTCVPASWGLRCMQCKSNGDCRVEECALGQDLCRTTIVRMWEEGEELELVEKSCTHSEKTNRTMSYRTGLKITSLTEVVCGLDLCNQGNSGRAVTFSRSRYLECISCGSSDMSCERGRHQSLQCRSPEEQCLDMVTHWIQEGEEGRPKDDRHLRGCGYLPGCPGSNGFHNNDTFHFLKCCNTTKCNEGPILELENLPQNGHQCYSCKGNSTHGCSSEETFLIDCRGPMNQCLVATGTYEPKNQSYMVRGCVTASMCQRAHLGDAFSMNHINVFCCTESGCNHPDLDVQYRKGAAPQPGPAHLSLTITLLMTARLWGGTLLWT
T5 sequence (Q9GK79 whole entry, looked up): as above
T2 sequence (Q9GK80 23-305): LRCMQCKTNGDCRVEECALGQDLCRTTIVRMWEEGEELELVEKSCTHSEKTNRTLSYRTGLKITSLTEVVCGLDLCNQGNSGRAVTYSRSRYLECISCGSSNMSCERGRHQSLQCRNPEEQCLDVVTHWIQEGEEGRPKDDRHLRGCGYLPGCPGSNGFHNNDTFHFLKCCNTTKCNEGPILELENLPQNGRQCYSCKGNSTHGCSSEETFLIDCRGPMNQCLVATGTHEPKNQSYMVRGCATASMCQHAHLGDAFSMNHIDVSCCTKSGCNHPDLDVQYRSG
T3 sequence (Q03405 23-305): as the sequence (Q9GK80 23-305) above, with M31L, N102D, N117S counted along it
T4 sequence (P35456 24-298): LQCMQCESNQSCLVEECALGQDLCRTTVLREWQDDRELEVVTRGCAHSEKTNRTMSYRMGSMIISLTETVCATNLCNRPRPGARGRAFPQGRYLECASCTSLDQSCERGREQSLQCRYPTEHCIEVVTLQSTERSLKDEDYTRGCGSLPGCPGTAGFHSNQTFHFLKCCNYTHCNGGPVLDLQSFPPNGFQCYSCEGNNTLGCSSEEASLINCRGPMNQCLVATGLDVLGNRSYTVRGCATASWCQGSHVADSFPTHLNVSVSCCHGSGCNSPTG

B1: ATN-658 monoclonal antibody (antibody, V domains shown)
VH: EVQLQQSGPELVKTGASVKISCKASGYSFTSYYMHWVKQSHGKSLEWIGEINPYNGGASYNQKIKGRATFTVDTSSRTAYMQFNSLTSEDSAVYYCARSIYGHSVLDYWGQGTSVSVSS
VL: not shown
notes: Fab part as the heavy chain of m4, followed by the rest of a mouse IgG1 heavy chain; as the light chain of m4 (kappa); Mouse IgG1 kappa; source: mouse hybridoma tissue culture supernatant, purified (protein-A Sepharose)
Regarding B1, the values for the binding result in assay [1] and in assay [2] were “no binding (tested: 10 µg/mL)” and “binds”, respectively.

B2: iodinated ATN-658 (antibody, V domains shown)
VH: B1 VH
VL: not shown
notes: as the heavy chain of m1; as the light chain of m1; Mouse IgG1 kappa; source: mouse hybridoma tissue culture supernatant, purified (protein-A Sepharose), iodinated
The molecule B2 gave a Kd in assay [3] of about 5 nM.

B3: Biotin-ATN-658 (antibody, V domains shown)
VH: B1 VH
VL: not shown
notes: as the heavy chain of m1; as the light chain of m1; Mouse IgG1 kappa
For the molecule B3, the binding result is recorded as “no binding” in assay [4], “no binding” in assay [5] and “no binding (tested: 1 µg/mL biotin-ATN-658 (methods))” in assay [6].

These data come from PMC3897428 (PLoS ONE, 2014).
